According to patent publication EP4660205A1 (Beijing Wisdomab Biotechnology Co., Ltd, dated 2025):
Residue numbers refer to the chain shown, from its start. Where two headings read alike, the source gives them in different places. Each block holds one binder with its values, some of them ahead of it.

Columns and labels:
[1] = molecular target: T1, human IL-36R on the cell surface (HEK-Blue IL-36 cells, HaCAT cells, human CD14+ monocytes) (human, UniProt Q9HB29 20-575); assay: cell-based or functional assay
T1 sequence (looked up): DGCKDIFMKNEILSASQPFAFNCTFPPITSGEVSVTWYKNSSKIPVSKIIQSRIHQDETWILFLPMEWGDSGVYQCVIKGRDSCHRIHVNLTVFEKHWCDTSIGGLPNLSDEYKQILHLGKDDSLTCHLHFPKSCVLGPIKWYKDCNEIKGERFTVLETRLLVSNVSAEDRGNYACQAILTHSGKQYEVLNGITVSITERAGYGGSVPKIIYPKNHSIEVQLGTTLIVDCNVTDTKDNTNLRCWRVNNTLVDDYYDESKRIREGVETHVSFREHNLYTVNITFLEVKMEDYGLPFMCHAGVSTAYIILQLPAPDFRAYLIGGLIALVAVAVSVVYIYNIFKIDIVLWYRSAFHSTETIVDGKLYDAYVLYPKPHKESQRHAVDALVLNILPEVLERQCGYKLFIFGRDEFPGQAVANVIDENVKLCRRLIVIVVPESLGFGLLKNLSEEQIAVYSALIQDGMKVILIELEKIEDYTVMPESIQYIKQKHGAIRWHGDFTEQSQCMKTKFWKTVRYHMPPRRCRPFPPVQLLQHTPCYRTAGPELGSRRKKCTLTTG

[2] = molecular target: T2, hIL-36R-His (extracellular domain of human IL-36R with C-terminal His tag) (human (homo sapiens), UniProt Q9HB29 20-335); assay: SPR (Biacore T200), antibody captured by anti-human Fc, hIL-36R-His as analyte, 1:1 model
T2 construct: also called human hIL-36R-His
T2 sequence: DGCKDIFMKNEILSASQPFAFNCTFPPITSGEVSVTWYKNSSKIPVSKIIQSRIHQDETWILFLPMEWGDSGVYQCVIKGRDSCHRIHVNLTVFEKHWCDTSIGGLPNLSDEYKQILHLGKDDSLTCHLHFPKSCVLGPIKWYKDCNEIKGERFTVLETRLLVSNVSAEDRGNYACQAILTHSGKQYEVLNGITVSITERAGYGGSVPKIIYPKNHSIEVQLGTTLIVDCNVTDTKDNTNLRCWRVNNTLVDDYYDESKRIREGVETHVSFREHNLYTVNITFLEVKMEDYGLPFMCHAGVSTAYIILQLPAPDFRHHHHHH

[3] = molecular target: T1, human IL-36R on the cell surface …; assay: cell-based or functional assay; remark: listed apart in the source
[4] = molecular target: T1, human IL-36R on the cell surface …; assay: cell-based or functional assay; remark: listed apart in the source
[5] = molecular target: T2, hIL-36R-His (extracellular domain of …); assay: SPR (Biacore T200), antibody captured by anti-human Fc, hIL-36R-His as analyte, 1:1 model; remark: listed apart in the source
[6] = molecular target: T3, hIL-1R3-His (extracellular domain of human IL-1R3 with C-terminal His tag) (human (homo sapiens), UniProt Q9NPH3 21-359); assay: SPR (Biacore T200), antibody captured by anti-human Fc, hIL-1R3-His as analyte, 1:1 model
T3 sequence: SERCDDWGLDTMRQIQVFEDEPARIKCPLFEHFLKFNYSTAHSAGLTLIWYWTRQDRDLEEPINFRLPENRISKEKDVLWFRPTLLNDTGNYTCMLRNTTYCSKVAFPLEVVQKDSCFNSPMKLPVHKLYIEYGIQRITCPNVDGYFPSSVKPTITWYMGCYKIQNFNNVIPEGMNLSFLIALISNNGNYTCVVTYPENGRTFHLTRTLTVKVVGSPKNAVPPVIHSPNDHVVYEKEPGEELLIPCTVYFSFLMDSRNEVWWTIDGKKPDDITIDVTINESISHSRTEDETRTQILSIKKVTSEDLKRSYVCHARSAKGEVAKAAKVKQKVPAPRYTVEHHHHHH

[7] = molecular target: T4, human IL-1R3 on the cell surface (HaCAT cells, PBMC/NK cells, MRC-5 cells) (human, UniProt Q9NPH3 21-570); assay: cell-based or functional assay
T4 sequence (looked up): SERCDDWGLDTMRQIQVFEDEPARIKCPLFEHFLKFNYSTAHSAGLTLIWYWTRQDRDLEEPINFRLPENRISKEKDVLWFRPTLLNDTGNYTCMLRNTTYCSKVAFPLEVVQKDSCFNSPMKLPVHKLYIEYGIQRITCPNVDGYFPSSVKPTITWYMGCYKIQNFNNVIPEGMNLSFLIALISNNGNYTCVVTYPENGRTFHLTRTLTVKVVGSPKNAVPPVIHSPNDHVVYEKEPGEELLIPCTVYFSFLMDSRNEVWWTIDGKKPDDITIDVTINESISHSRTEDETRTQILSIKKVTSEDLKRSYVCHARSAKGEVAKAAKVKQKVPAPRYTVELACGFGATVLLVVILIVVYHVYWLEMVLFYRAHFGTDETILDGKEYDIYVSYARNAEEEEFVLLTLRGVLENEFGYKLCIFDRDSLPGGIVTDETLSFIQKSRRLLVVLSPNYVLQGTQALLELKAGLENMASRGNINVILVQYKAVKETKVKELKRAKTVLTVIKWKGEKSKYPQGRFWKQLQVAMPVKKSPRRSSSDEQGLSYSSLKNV

[8] = molecular target: T3, hIL-1R3-His (extracellular domain of …); assay: SPR (Biacore T200), antibody captured by anti-human Fc, hIL-1R3-His as analyte, 1:1 model; remark: listed apart in the source
[9] = molecular target: T3, hIL-1R3-His (extracellular domain of …); assay: as above; remark: listed apart in the source
[10] = molecular target: T2, hIL-36R-His (extracellular domain of …); assay: SPR (Biacore T200), antibody captured by anti-human Fc, hIL-36R-His as analyte, 1:1 model; remark: listed apart in the source
[11] = molecular target: T1, human IL-36R on the cell surface …; assay: cell-based or functional assay; remark: listed apart in the source

IC50 for inhibiting IL-36α from inducing hIL-8 secretion by HaCAT cells [1]: 0.0433 nM
IC50 for inhibiting IL-36β from inducing hIL-8 secretion by HaCAT cells [1]: 0.172 nM
IC50 for inhibiting IL-36γ from inducing hIL-8 secretion by HaCAT cells [1]: 0.642 nM
Kd [2]: 2.56 nM
koff [2]: 7.39e-05 s⁻¹
kon [2]: 28800 M⁻¹ s⁻¹
IC50 for inhibiting IL-36α from inducing hIL-8 secretion by HaCAT cells [3]: 0.0939 nM
IC50 for inhibiting IL-36β from inducing hIL-8 secretion by HaCAT cells [3]: 0.114 nM
IC50 for inhibiting IL-36γ from inducing hIL-8 secretion by HaCAT cells [3]: 0.682 nM
IC50 for inhibiting IL-36γ-induced hIL-8 secretion by human monocytes [4]: 0.0288 nM
B1: Spesolimab (antibody, V domains shown)
VH: QVQLVQSGAEVKKPGASVKVSCKASGYSFTSSWIHWVKQAPGQGLEWMGEINPGNVRTNYNENFRNKVTMTVDTSISTAYMELSRLRSDDTAVYYCTVVFYGEPYFPYWGQGTLVTVSS
VL: QIVLTQSPGTLSLSPGERATMTCTASSSVSSSYFHWYQQKPGQAPRLWIYRTSRLASGVPDRFSGSGSGTDFTLTISRLEPEDAATYYCHQFHRSPLTFGAGTKLEIK
notes: Made in house from the variable regions of US9023995B2 as a whole IgG1m3 subtype antibody (control)

Kd [5]: 1.65 nM
koff [5]: 5.4e-05 s⁻¹
kon [5]: 32800 M⁻¹ s⁻¹
IC50 for inhibiting IL-36α from inducing hIL-8 secretion by HaCAT cells [3]: 0.508 nM
IC50 for inhibiting IL-36β from inducing hIL-8 secretion by HaCAT cells [3]: 0.511 nM
IC50 for inhibiting IL-36γ from inducing hIL-8 secretion by HaCAT cells [3]: 3.65 nM
B2: R72B7VH+L36E9VK (antibody, V domains shown)
VH: B1 VH with T58S, V99I, F100N, P107A, Y108S
VL: EIVLTQSPGTLSLSPGERATLSCRASQSVIGSYLAWYQQKPGQAPRLLIYSASKLASGIPDRFSGSGSGTDFTLTISRLEPEDFAVYYCQQDTRYPITFGQGTKVEIK
notes: also called R72B7VH+L36E9VK monoclonal antibody

Kd [5]: 11.4 nM
koff [5]: 9.94e-05 s⁻¹
kon [5]: 8690 M⁻¹ s⁻¹
B3: R49E11VH-h3+L36E9VK (antibody, V domains shown)
VH: B1 VH with K38R, N55S, V56G, T58S, R65Q, N66G, K67R, Y108F
VL: B2 VL

Kd [6]: 1.12 nM
koff [6]: 0.000111 s⁻¹
kon [6]: 99200 M⁻¹ s⁻¹
IC50 for inhibiting IL-36α from inducing hIL-8 secretion by HaCAT cells [7]: 0.195 nM
IC50 for inhibiting IL-36β from inducing hIL-8 secretion by HaCAT cells [7]: 0.0961 nM
IC50 for inhibiting IL-36γ from inducing hIL-8 secretion by HaCAT cells [7]: 0.608 nM
Kd [8]: 1.45 nM
koff [8]: 0.000153 s⁻¹
kon [8]: 106000 M⁻¹ s⁻¹
Kd [9]: 1.45 nM
koff [9]: 0.000153 s⁻¹
kon [9]: 106000 M⁻¹ s⁻¹
B4: R1B9VH-h1+R1B9VK-h1 (antibody, V domains shown)
VH: EVQLVESGGGLVQPGGSLRLSCAASGFTFSSYAMSWVRQAPGKGLVWVAEISRGGSHTYYPDTVTGRFTISRDNAKNTLYLQMNSLRAEDTAVYYCARSYGNYPFDYWGQGTTVTVSS
VL: EIVLTQSPATLSLSPGERATLSCSASSSVSYMYWYQQKPGQAPRLLIYDTSNLASGIPARFSGSGSGTDFTLTISSLEPEDFAVYYCQQWSSYPLTFGQGTKLEIK
notes: also called humanized IL-1R3 antibody; R1B9VH-hl+R1B9VK-h1

Kd [10]: 0.669 nM
koff [10]: 4.37e-05 s⁻¹
kon [10]: 65400 M⁻¹ s⁻¹
fold increase of activity by IC50 against R49E11VH-h3+L26B11VK, IL-36α, HaCAT hIL-8 secretion [11]: ~3 fold
fold increase of activity by IC50 against R49E11VH-h3+L26B11VK, IL-36β, HaCAT hIL-8 secretion [11]: ~13 fold
fold increase of activity by IC50 against R49E11VH-h3+L26B11VK, IL-36γ, HaCAT hIL-8 secretion [11]: ~103 fold
IC50 for inhibiting IL-36α from inducing hIL-8 secretion by HaCAT cells [1]: 0.0183 nM
IC50 for inhibiting IL-36β from inducing hIL-8 secretion by HaCAT cells [1]: 0.0211 nM
IC50 for inhibiting IL-36γ from inducing hIL-8 secretion by HaCAT cells [1]: 0.0184 nM
Kd [9]: 0.761 nM
koff [9]: 0.000155 s⁻¹
kon [9]: 203000 M⁻¹ s⁻¹
B5: Crossmab bispecific antibody (R1B9VH-h1+R1B9VK-h1-Fab-cross+R49E11VH-h3+L26B11VK-Fab) (bispecific antibody, human IgG1, kappa)
heavy 1: QVQLVQSGAEVKKPGASVKVSCKASGYSFTSSWIHWVRQAPGQGLEWMGEINPGSGRSNYNENFQGRVTMTVDTSISTAYMELSRLRSDDTAVYYCTVVFYGEPYFPFWGQGTLVTVSSASTKGPSVFPLAPSSKSTSEGTAALGCLVKDYFPEPVTVSWNSGALTSGVHTFPAVLQSSGLYSLSSVVTVPSSSLGTQTYICNVDHKPSNTKVDKTVEPKSCDKTHTCPPCPAPEFEGGPSVFLFPPKPKDTLMISRTPEVTCVVVDVSQEDPEVQFNWYVDGVEVHNAKTKPREEQYNSTYRVVSVLTVLHQDWLNGKEYKCKVSNKALPASIEKTISKAKGQPREPQVCTLPPSQEEMTKNQVSLSCAVKGFYPSDIAVEWESNGQPENNYKTTPPVLDSDGSFFLVSKLTVDKSRWQEGNVFSCSVMHEALHNHYTQKSLSLSPGK
light 1: EIVLTQSPGTLSLSPGERATLSCRASQSVIYSYLAWYQQKPGQAPRLLIYSASKRASGIPDRFSGSGSGTDFTLTISRLEPEDFAVYYCQQHAGIPVTFGQGTKVEIKRTVAAPSVFIFPPSDEQLKSGTASVVCLLNNFYPREAKVQWKVDNALQSGNSQESVTEQDSKDSTYSLSSTLTLSKADYEKHKVYACEVTHQGLSSPVTKSFNRGEC
heavy 2: EVQLVESGGGLVQPGGSLRLSCAASGFTFSSYAMSWVRQAPGKGLVWVAEISRGGSHTYYPDTVTGRFTISRDNAKNTLYLQMNSLRAEDTAVYYCARSYGNYPFDYWGQGTTVTVSSASVAAPSVFIFPPSDEQLKSGTASVVCLLNNFYPREAKVQWKVDNALQSGNSQESVTEQDSKDSTYSLSSTLTLSKADYEKHKVYACEVTHQGLSSPVTKSFNRGECDKTHTCPPCPAPEFEGGPSVFLFPPKPKDTLMISRTPEVTCVVVDVSHEDPEVKFNWYVDGVEVHNAKTKPREEQYNSTYRVVSVLTVLHQDWLNGKEYKCKVSNKALPASIEKTISKAKGQPREPQVYTLPPCREEMTKNQVSLWCLVKGFYPSDIAVEWESNGQPENNYKTTPPVLDSDGSFFLYSKLTVDKSRWQQGNVFSCSVMHEALHNHYTQKSLSLSPGK
light 2: EIVLTQSPATLSLSPGERATLSCSASSSVSYMYWYQQKPGQAPRLLIYDTSNLASGIPARFSGSGSGTDFTLTISSLEPEDFAVYYCQQWSSYPLTFGQGTKLEIKSSASTKGPSVFPLAPSSKSTSGGTAALGCLVKDYFPEPVTVSWNSGALTSGVHTFPAVLQSSGLYSLSSVVTVPSSSLGTQTYICNVNHKPSNTKVDKRVEPKSC
notes: also called IL-36R×IL-1R3 Crossmab bispecific antibody
